Consider four molecules from article PMC9226502, “MutL binds to 3′ resected DNA ends and blocks DNA polymerase access”.

The target in data set [1] is T1, MutL WT (Escherichia coli, UniProt P23367 1-615). The data set can be described thus: fluorescence anisotropy; 3 mM ATP (Table 2 gives 0.64 uM); FA: 20 mM HEPES pH 7.5, 150 mM NaCl, 5 mM MgCl2, 0.08% Tween 20, 20% glycerol, 2 mM DTT, 5 nM DNA, 25 C; BLI: 25 mM HEPES pH 7.5, 150 mM NaCl, 5 mM MgCl2, 2 mM. The following applies: protein: recombinant; (HisTrap purified); chain copies: 2; label: 5'-FAM on primer S8; 15 bp duplex, 5' overhang 16 nt on template (recessed primer 3' end). A general note: Polarisation of emitted light reports the rotation of a fluorescent probe.

The target in a further data set is MutL H270A+H319A (Escherichia coli, UniProt P23367 1-615, H270A;H319A). In words: fluorescence anisotropy; AMPPNP (1 mM, Fig 3C); FA: 20 mM HEPES pH 7.5, 150 mM NaCl, 5 mM MgCl2, 0.08% Tween 20, 20% glycerol, 2 mM DTT, 5 nM DNA, 25 C; BLI: 25 mM HEPES pH 7.5, 150 mM NaCl, 5 mM MgCl2, 2 mM. The note with it: protein: recombinant; (HisTrap purified); chain copies: 2; label: 5'-FAM on primer S8; 15 bp duplex, 5' overhang 16 nt on template (recessed primer 3' end).

In the next data set the target is MutL H270A (Escherichia coli, UniProt P23367 1-615, H270A). The data set is described as above. The following applies: protein: recombinant; (HisTrap purified); chain copies: 2; label: 5'-FAM on primer S8; 15 bp duplex, 5' overhang 16 nt on template (recessed primer 3' end).
The target in another data set is MutL H319A (Escherichia coli, UniProt P23367 1-615, H319A). Described as above. The following applies: protein: recombinant; (HisTrap purified); chain copies: 2; label: 5'-FAM on primer S8; 15 bp duplex, 5' overhang 16 nt on template (recessed primer 3' end).
For data set [2], the target named is T1, MutL WT. The data set can be described thus: fluorescence anisotropy; AMPPNP (3 mM; Fig 3C legend 1 mM); FA: 20 mM HEPES pH 7.5, 150 mM NaCl, 5 mM MgCl2, 0.08% Tween 20, 20% glycerol, 2 mM DTT, 5 nM DNA, 25 C; BLI: 25 mM HEPES pH 7.5, 150 mM NaCl, 5 mM MgCl2, 2 mM. The following applies: protein: recombinant; (HisTrap purified); chain copies: 2; label: 5'-FAM on primer S8; 15 bp duplex, 5' overhang 16 nt on template (recessed primer 3' end).

Data set [3] has as its target T1, MutL WT. In words: fluorescence anisotropy; 3 mM ATP; FA: 20 mM HEPES pH 7.5, 150 mM NaCl, 5 mM MgCl2, 0.08% Tween 20, 20% glycerol, 2 mM DTT, 5 nM DNA, 25 C; BLI: 25 mM HEPES pH 7.5, 150 mM NaCl, 5 mM MgCl2, 2 mM. The note with it: protein: recombinant, (HisTrap purified), chain copies: 2.
In data set [4] the target is T1, MutL WT. The data set can be described thus: cryo-EM structure (3.7 A); 3 mM AMPPNP, 5 mM Mg2+; FA: 20 mM HEPES pH 7.5, 150 mM NaCl, 5 mM MgCl2, 0.08% Tween 20, 20% glycerol, 2 mM DTT, 5 nM DNA, 25 C; BLI: 25 mM HEPES pH 7.5, 150 mM NaCl, 5 mM MgCl2, 2 mM. The following applies: protein: recombinant; (HisTrap purified); chain copies: 2; 21 bp duplex, 5' overhang 21 nt on template.

B1: 3' resected primer/template junction (dsDNA)
DNA 1: AAGTGTCTGTCGTTTTAAGGACGAAGGACTC
DNA 2: GAGTCCTTCGTCCTT
Regarding B1, the dissociation constant (Kd) – broadly, a measure of binding affinity in units of concentration – with MutL WT [1] stood at 650 ± 320 nM; with MutL H270A it was 1590 ± 230 nM; with MutL H319A, 4510 ± 1180 nM; with MutL WT [2], 290 ± 120 nM. In the data set with MutL H270A+H319A, the binding result is listed as “no binding”.

B2: 5' resected primer/template junction (dsDNA)
DNA 1: AAGTGTCTGTCGTTTTAAGGACGAAGGACTC
DNA 2: AAAACGACAGACACTT
Consider B2, for which the binding result with MutL WT [3] (label: 3'-FAM on primer S7) is given as “no binding”.

B3: blunt-ended DNA (dsDNA)
DNA 1: AAGTGTCTGTCGTTTT
DNA 2: AAAACGACAGACACTT
B3: in the data set with MutL WT [3] (label: 3'-FAM on S7), the binding result was “no binding”.

B4: cryo-EM 3' resected DNA (dsDNA)
DNA 1: AAACAGGCTTAGGCTGGAGGATCAGCTTAGCTTAGAGTCATC
DNA 2: GATGACTCTAAGCTAAGCTGA
With B4, in the data set with MutL WT [4], the binding result is “binds”.
